Results from patent US20260193293A1, “PEPTIDES CAPABLE OF INHIBITING PROTEIN-PROTEIN INTERACTIONS AT GABAB1A SUBUNIT AND USES THEREOF” (UNIVERSITY OF COPENHAGEN, priority 2022, published 2026).
Non-standard residues stand in square brackets, D forms with d. NMeW = CN[C@@H](Cc1c[nH]c2ccccc12)C(=O)O; NMeF = CN[C@@H](Cc1ccccc1)C(=O)O; NMeT = CN[C@H](C(=O)O)[C@@H](C)O; NMeE = CN[C@@H](CCC(=O)O)C(=O)O; NMeD = CN[C@@H](CC(=O)O)C(=O)O; NMeA = CN[C@@H](C)C(=O)O; Sar = CNCC(=O)O

B1: EDDSDVW(N-Me-W)GGADTD (peptide)
peptide: Ac-EDDSDVW[NMeW]GGADTD-NH2
SMILES: CC(=O)N[C@@H](CCC(=O)O)C(=O)N[C@@H](CC(=O)O)C(=O)N[C@@H](CC(=O)O)C(=O)N[C@@H](CO)C(=O)N[C@@H](CC(=O)O)C(=O)N[C@H](C(=O)N[C@@H](Cc1c[nH]c2ccccc12)C(=O)N(C)[C@@H](Cc1c[nH]c2ccccc12)C(=O)NCC(=O)NCC(=O)N[C@@H](C)C(=O)N[C@@H](CC(=O)O)C(=O)N[C@H](C(=O)N[C@@H](CC(=O)O)C(N)=O)[C@@H](C)O)C(C)C
B2: EDDSDVWW(N-Me-G)GADTD (peptide)
peptide: Ac-EDDSDVWW[Sar]GADTD-NH2
SMILES: CC(=O)N[C@@H](CCC(=O)O)C(=O)N[C@@H](CC(=O)O)C(=O)N[C@@H](CC(=O)O)C(=O)N[C@@H](CO)C(=O)N[C@@H](CC(=O)O)C(=O)N[C@H](C(=O)N[C@@H](Cc1c[nH]c2ccccc12)C(=O)N[C@@H](Cc1c[nH]c2ccccc12)C(=O)N(C)CC(=O)NCC(=O)N[C@@H](C)C(=O)N[C@@H](CC(=O)O)C(=O)N[C@H](C(=O)N[C@@H](CC(=O)O)C(N)=O)[C@@H](C)O)C(C)C
B3: …(N-Me-A)DTD (peptide)
peptide: Ac-EDDSDVWWGG[NMeA]DTD-NH2
SMILES: CC(=O)N[C@@H](CCC(=O)O)C(=O)N[C@@H](CC(=O)O)C(=O)N[C@@H](CC(=O)O)C(=O)N[C@@H](CO)C(=O)N[C@@H](CC(=O)O)C(=O)N[C@H](C(=O)N[C@@H](Cc1c[nH]c2ccccc12)C(=O)N[C@@H](Cc1c[nH]c2ccccc12)C(=O)NCC(=O)NCC(=O)N(C)[C@@H](C)C(=O)N[C@@H](CC(=O)O)C(=O)N[C@H](C(=O)N[C@@H](CC(=O)O)C(N)=O)[C@@H](C)O)C(C)C
B4: …(N-Me-D)TD (peptide)
peptide: Ac-EDDSDVWWGGA[NMeD]TD-NH2
SMILES: CC(=O)N[C@@H](CCC(=O)O)C(=O)N[C@@H](CC(=O)O)C(=O)N[C@@H](CC(=O)O)C(=O)N[C@@H](CO)C(=O)N[C@@H](CC(=O)O)C(=O)N[C@H](C(=O)N[C@@H](Cc1c[nH]c2ccccc12)C(=O)N[C@@H](Cc1c[nH]c2ccccc12)C(=O)NCC(=O)NCC(=O)N[C@@H](C)C(=O)N(C)[C@@H](CC(=O)O)C(=O)N[C@H](C(=O)N[C@@H](CC(=O)O)C(N)=O)[C@@H](C)O)C(C)C
B5: …(N-Me-T)D (peptide)
peptide: Ac-EDDSDVWWGGAD[NMeT]D-NH2
SMILES: CC(=O)N[C@@H](CCC(=O)O)C(=O)N[C@@H](CC(=O)O)C(=O)N[C@@H](CC(=O)O)C(=O)N[C@@H](CO)C(=O)N[C@@H](CC(=O)O)C(=O)N[C@H](C(=O)N[C@@H](Cc1c[nH]c2ccccc12)C(=O)N[C@@H](Cc1c[nH]c2ccccc12)C(=O)NCC(=O)NCC(=O)N[C@@H](C)C(=O)N[C@@H](CC(=O)O)C(=O)N(C)[C@H](C(=O)N[C@@H](CC(=O)O)C(N)=O)[C@@H](C)O)C(C)C
B6: …(N-Me-D) (peptide)
peptide: Ac-EDDSDVWWGGADT[NMeD]-NH2
SMILES: CC(=O)N[C@@H](CCC(=O)O)C(=O)N[C@@H](CC(=O)O)C(=O)N[C@@H](CC(=O)O)C(=O)N[C@@H](CO)C(=O)N[C@@H](CC(=O)O)C(=O)N[C@H](C(=O)N[C@@H](Cc1c[nH]c2ccccc12)C(=O)N[C@@H](Cc1c[nH]c2ccccc12)C(=O)NCC(=O)NCC(=O)N[C@@H](C)C(=O)N[C@@H](CC(=O)O)C(=O)N[C@H](C(=O)N(C)[C@@H](CC(=O)O)C(N)=O)[C@@H](C)O)C(C)C
B7: e… (peptide)
peptide: Ac-[dE]TEFIAWGPTGDED-NH2
SMILES: CC[C@H](C)[C@H](NC(=O)[C@H](Cc1ccccc1)NC(=O)[C@H](CCC(=O)O)NC(=O)[C@@H](NC(=O)[C@@H](CCC(=O)O)NC(C)=O)[C@@H](C)O)C(=O)N[C@@H](C)C(=O)N[C@@H](Cc1c[nH]c2ccccc12)C(=O)NCC(=O)N1CCC[C@H]1C(=O)N[C@H](C(=O)NCC(=O)N[C@@H](CC(=O)O)C(=O)N[C@@H](CCC(=O)O)C(=O)N[C@@H](CC(=O)O)C(N)=O)[C@@H](C)O
B8: …aDED (peptide)
peptide: Ac-ETEFIAWGPT[dA]DED-NH2
SMILES: CC[C@H](C)[C@H](NC(=O)[C@H](Cc1ccccc1)NC(=O)[C@H](CCC(=O)O)NC(=O)[C@@H](NC(=O)[C@H](CCC(=O)O)NC(C)=O)[C@@H](C)O)C(=O)N[C@@H](C)C(=O)N[C@@H](Cc1c[nH]c2ccccc12)C(=O)NCC(=O)N1CCC[C@H]1C(=O)N[C@H](C(=O)N[C@H](C)C(=O)N[C@@H](CC(=O)O)C(=O)N[C@@H](CCC(=O)O)C(=O)N[C@@H](CC(=O)O)C(N)=O)[C@@H](C)O
B9: (N-Me-E)… (peptide)
peptide: Ac-[NMeE]TEFIAWGPTGDED-NH2
SMILES: CC[C@H](C)[C@H](NC(=O)[C@H](Cc1ccccc1)NC(=O)[C@H](CCC(=O)O)NC(=O)[C@@H](NC(=O)[C@H](CCC(=O)O)N(C)C(C)=O)[C@@H](C)O)C(=O)N[C@@H](C)C(=O)N[C@@H](Cc1c[nH]c2ccccc12)C(=O)NCC(=O)N1CCC[C@H]1C(=O)N[C@H](C(=O)NCC(=O)N[C@@H](CC(=O)O)C(=O)N[C@@H](CCC(=O)O)C(=O)N[C@@H](CC(=O)O)C(N)=O)[C@@H](C)O
B10: E(N-Me-T)… (peptide)
peptide: Ac-E[NMeT]EFIAWGPTGDED-NH2
SMILES: CC[C@H](C)[C@H](NC(=O)[C@H](Cc1ccccc1)NC(=O)[C@H](CCC(=O)O)NC(=O)[C@H]([C@@H](C)O)N(C)C(=O)[C@H](CCC(=O)O)NC(C)=O)C(=O)N[C@@H](C)C(=O)N[C@@H](Cc1c[nH]c2ccccc12)C(=O)NCC(=O)N1CCC[C@H]1C(=O)N[C@H](C(=O)NCC(=O)N[C@@H](CC(=O)O)C(=O)N[C@@H](CCC(=O)O)C(=O)N[C@@H](CC(=O)O)C(N)=O)[C@@H](C)O
B11: ET(N-Me-E)… (peptide)
peptide: Ac-ET[NMeE]FIAWGPTGDED-NH2
SMILES: CC[C@H](C)[C@H](NC(=O)[C@H](Cc1ccccc1)NC(=O)[C@H](CCC(=O)O)N(C)C(=O)[C@@H](NC(=O)[C@H](CCC(=O)O)NC(C)=O)[C@@H](C)O)C(=O)N[C@@H](C)C(=O)N[C@@H](Cc1c[nH]c2ccccc12)C(=O)NCC(=O)N1CCC[C@H]1C(=O)N[C@H](C(=O)NCC(=O)N[C@@H](CC(=O)O)C(=O)N[C@@H](CCC(=O)O)C(=O)N[C@@H](CC(=O)O)C(N)=O)[C@@H](C)O
B12: ETE(N-Me-F)… (peptide)
peptide: Ac-ETE[NMeF]IAWGPTGDED-NH2
SMILES: CC[C@H](C)[C@H](NC(=O)[C@H](Cc1ccccc1)N(C)C(=O)[C@H](CCC(=O)O)NC(=O)[C@@H](NC(=O)[C@H](CCC(=O)O)NC(C)=O)[C@@H](C)O)C(=O)N[C@@H](C)C(=O)N[C@@H](Cc1c[nH]c2ccccc12)C(=O)NCC(=O)N1CCC[C@H]1C(=O)N[C@H](C(=O)NCC(=O)N[C@@H](CC(=O)O)C(=O)N[C@@H](CCC(=O)O)C(=O)N[C@@H](CC(=O)O)C(N)=O)[C@@H](C)O

Biological target: Sushi domains (SD1/2) protein of the GABAB1a (GB1a) subunit, recombinant
Sequence (Q9Z0U4 29-158): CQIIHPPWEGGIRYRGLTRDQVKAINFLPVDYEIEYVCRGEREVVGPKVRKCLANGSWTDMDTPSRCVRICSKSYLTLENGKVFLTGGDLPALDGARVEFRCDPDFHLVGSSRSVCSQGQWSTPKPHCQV
Test: FP competition

Which Ki does the source give for B1 here?
The Ki was 1380 nM.

B2 was tested. Which Ki did it give?
The Ki was 18900 nM.

How did the Ki turn out when B3 was run?
The Ki was 704 nM.

B4 was tested. Which Ki did it give?
The Ki was 403 nM.

With B5 as the binder, how does the Ki read?
The Ki was 503 nM.

B6 was tested. Which Ki did it give?
The Ki was 565 nM.

With Ac-ATEFIAWGPTGDED-NH2 as the binder, how does the Ki read?
The Ki was 53 nM.

How did the Ki turn out when Ac-EAEFIAWGPTGDED-NH2 was run?
The Ki was 34 nM.

Ac-ETAFIAWGPTGDED-NH2 was tested. Which Ki did it give?
Its Ki is 49 nM.

With Ac-ETEAIAWGPTGDED-NH2 as the binder, how does the Ki read?
The Ki was 688 nM.

For Ac-ETEFIAWAPTGDED-NH2, which Ki is on record?
The Ki was 196 nM.

How did the Ki turn out when Ac-ETEFIAWGATGDED-NH2 was run?
The Ki was 291 nM.

How did the Ki turn out when Ac-ETEFIAWGPAGDED-NH2 was run?
The Ki was 89 nM.

How did the Ki turn out when Ac-ETEFIAWGPTADED-NH2 was run?
The Ki was 20 nM.

How did the Ki turn out when Ac-ETEFIAWGPTGAED-NH2 was run?
Its Ki is 50 nM.

How did the Ki turn out when Ac-ETEFIAWGPTGDAD-NH2 was run?
Its Ki is 38 nM.

With Ac-ETEFIAWGPTGDEA-NH2 as the binder, how does the Ki read?
Its Ki is 44 nM.

For B7, which Ki is on record?
Its Ki is 46 nM.

How did the Ki turn out when Ac-E[dT]EFIAWGPTGDED-NH2 [Et…] was run?
The Ki was 56 nM.

With Ac-ET[dE]FIAWGPTGDED-NH2 [ETe…] as the binder, how does the Ki read?
Its Ki is 178 nM.

For Ac-ETE[dF]IAWGPTGDED-NH2 [ETEf…], which Ki is on record?
Its Ki is 930 nM.

With Ac-ETEFIAW[dA]PTGDED-NH2 [ETEFIAWaPTGDED] as the binder, how does the Ki read?
The Ki was 5400 nM.

For Ac-ETEFIAWG[dP]TGDED-NH2 [ETEFIAWGpTGDED], which Ki is on record?
Its Ki is 352 nM.

For B8, which Ki is on record?
The Ki was 54 nM.

Ac-ETEFIAWGPTG[dD]ED-NH2 […dED] was tested. Which Ki did it give?
The Ki was 29 nM.

For Ac-ETEFIAWGPTGD[dE]D-NH2 […eD], which Ki is on record?
The Ki was 44 nM.

How did the Ki turn out when Ac-ETEFIAWGPTGDE[dD]-NH2 […d] was run?
The Ki was 39 nM.

How did the Ki turn out when B9 was run?
The Ki was 35 nM.

B10 was tested. Which Ki did it give?
Its Ki is 37 nM.

With B11 as the binder, how does the Ki read?
The Ki was 159 nM.

B12 was tested. Which Ki did it give?
The Ki was 252 nM.
